Substitutions are numbered along the chain they refer to. Names and notes keep the numbering of the source. Values joined by “and” are separate entries in the source; they are usually repeats but may differ in a detail not shown here. Equal values may be shown once. One block for each binder: values may come before it.
Legend:
CXCR1 = CXCR1 (UniProt P25024); assay: cell-based or functional assay
Kv1.3 (human) = Kv1.3 (human) (UniProt P22001); assay: cell-based or functional assay
Chain of Kv1.3 (human) (P22001 whole entry): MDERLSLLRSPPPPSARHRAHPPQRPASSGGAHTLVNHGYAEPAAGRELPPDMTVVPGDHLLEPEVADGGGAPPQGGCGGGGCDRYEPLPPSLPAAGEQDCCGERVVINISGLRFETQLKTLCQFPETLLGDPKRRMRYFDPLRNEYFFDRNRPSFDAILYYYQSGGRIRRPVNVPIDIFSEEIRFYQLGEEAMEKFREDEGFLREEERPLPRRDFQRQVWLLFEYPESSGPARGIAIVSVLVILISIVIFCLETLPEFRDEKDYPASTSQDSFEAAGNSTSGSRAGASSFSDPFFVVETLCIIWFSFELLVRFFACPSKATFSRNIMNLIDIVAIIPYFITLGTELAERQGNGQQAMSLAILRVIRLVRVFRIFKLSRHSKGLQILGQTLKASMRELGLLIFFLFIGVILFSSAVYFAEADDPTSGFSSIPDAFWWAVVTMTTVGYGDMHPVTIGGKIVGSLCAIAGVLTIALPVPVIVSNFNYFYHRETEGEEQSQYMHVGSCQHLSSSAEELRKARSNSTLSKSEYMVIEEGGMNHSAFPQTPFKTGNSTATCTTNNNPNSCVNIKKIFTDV

Chain of CXCR1 (P25024 whole entry): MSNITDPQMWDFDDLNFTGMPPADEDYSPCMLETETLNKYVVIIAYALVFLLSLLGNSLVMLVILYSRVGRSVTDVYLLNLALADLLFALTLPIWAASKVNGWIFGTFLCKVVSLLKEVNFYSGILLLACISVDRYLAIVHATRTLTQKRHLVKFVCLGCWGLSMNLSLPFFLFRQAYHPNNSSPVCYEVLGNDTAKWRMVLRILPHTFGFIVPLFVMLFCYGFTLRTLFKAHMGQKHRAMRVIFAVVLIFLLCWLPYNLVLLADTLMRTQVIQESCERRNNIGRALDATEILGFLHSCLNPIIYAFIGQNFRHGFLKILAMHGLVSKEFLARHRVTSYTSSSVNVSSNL

B1: VH4-34+CDR3-IL8_CDR1-Cow_Q5RQ6E with VL1-51 S2A, T5N, P8S, A12G, A13S, P14L, K46R, L47T, D51G, N52D, N53T (antibody)
VH: QVQLREWGAGLLKPSETLSLTCTASGFSLSDKAVGWIRQPPGKGLEWIGEINHSGSTNYNPSLKSRVTISVDTSKNQFSLKLSSVTAADTAVYYCTSVHQETKKYQSPRSAKELRCQCIKTYSKPFHPKFIKELRVIESGPHCANTEIIVKLSDGRELCLDPKENWVQRVVEKFLKRAENSGSGSYTYNYEWHVDVWGQGLLVTVSS
light: QAVLNQPSSVSGSLGQKVTISCSGSSSNIGNNYVSWYQQLPGTAPRTLIYGDTKRPSGIPDRFSGSKSGTSATLGITGLQTGDEADYYCASAEDSSSNAVFGSGTTLTVLGQPKAAPSVTLFPPSSEELQANKATLVCLISDFYPGAVTVAWKADSSPVKAGVETTTPSKQSNNKYAASSYLSLTPEQWKSHRSYSCQVTHEGSTVEKTVAPTECS
luminescence at 0.1 nM IL-8 domains (CXCR1): 4180
luminescence at 0.4 nM IL-8 domains (CXCR1): 5190
luminescence at 0.5 nM IL-8 domains (CXCR1): 6620
luminescence at 1.6 nM IL-8 domains (CXCR1): 6410
luminescence at 2.2 nM IL-8 domains (CXCR1): 13500
luminescence at 6.25 nM IL-8 domains (CXCR1): 10500
luminescence at 9.9 nM IL-8 domains (CXCR1): 21900
luminescence at 25 nM IL-8 domains (CXCR1): 14600
luminescence at 44 nM IL-8 domains (CXCR1): 24000
luminescence at 100 nM IL-8 domains (CXCR1): 18000
luminescence at 200 nM IL-8 domains (CXCR1): 25000

B2: VH4-34+CDR3-IL8_CDR1-Cow_CDR2-Cow with VL1-51 S2A, T5N, P8S, A12G, A13S, P14L, K46R, L47T, D51G, N52D, N53T (antibody)
VH: QVQLQQWGAGLLKPSETLSLTCTASGFSLSDKAVGWIRQPPGKGLEWLGSIDTGGNTGYNPSLKSRVTISVDTSKNQFSLKLSSVTAADTAVYYCTSVHQETKKYQSPRSAKELRCQCIKTYSKPFHPKFIKELRVIESGPHCANTEIIVKLSDGRELCLDPKENWVQRVVEKFLKRAENSGSGSYTYNYEWHVDVWGQGLLVTVSSAS
light: B1 light
luminescence at 0.4 nM IL-8 domains (CXCR1): 6310
luminescence at 1.6 nM IL-8 domains (CXCR1): 7400
luminescence at 6.25 nM IL-8 domains (CXCR1): 10200
luminescence at 25 nM IL-8 domains (CXCR1): 15400
luminescence at 100 nM IL-8 domains (CXCR1): 21600

B5: VH4-34 MutE 3xGGS NoKnob IgG (antibody, V domains shown)
VH: QVQLREWGAGLLKPSETLSLTCAVYGGSFSDKYWSWIRQPPGKGLEWIGSINHSGSTNYNPSLKSRVTISVDTSKNQFSLKLSSVTAADTAVYYCTSVHQETKKYQSGGSGGSGGSSYTYNYEWHVDVWGQGLLVTVSS
VL: QAVLNQPSSVSGSLGQKVTISCSGSSSNIGNNYVSWYQQLPGTAPRTLIYGDTKRPSGIPDRFSGSKSGTSATLGITGLQTGDEADYYCASAEDSSSNAVFGSGTTLTVLG
IL-2 ELISA (A450), Donor 1, [IgG] 0.01 nM (Kv1.3 (human)): 2.18 A450 and 2.23 A450
IL-2 ELISA (A450), Donor 1, [IgG] 0.75 nM (Kv1.3 (human)): 2.19 A450 and 2.17 A450
IL-2 ELISA (A450), Donor 1, [IgG] 68 nM (Kv1.3 (human)): 1.42 A450 and 1.31 A450
IL-2 ELISA (A450), Donor 2, [IgG] 0.01 nM (Kv1.3 (human)): 1.75 A450
IL-2 ELISA (A450), Donor 2, [IgG] 0.75 nM (Kv1.3 (human)): 1.61 A450 and 1.42 A450
IL-2 ELISA (A450), Donor 2, [IgG] 68 nM (Kv1.3 (human)): 1.32 A450 and 0.934 A450
IL-17 ELISA (A450), Donor 1, 0.00 nM IgG (Kv1.3 (human)): 0 A450
IL-17 ELISA (A450), Donor 1, 0.02 nM IgG (Kv1.3 (human)): 1.35 A450
IL-17 ELISA (A450), Donor 1, 0.08 nM IgG (Kv1.3 (human)): 1.34 A450
IL-17 ELISA (A450), Donor 1, 0.34 nM IgG (Kv1.3 (human)): 1.27 A450
IL-17 ELISA (A450), Donor 1, 1.54 nM IgG (Kv1.3 (human)): 1.18 A450
IL-17 ELISA (A450), Donor 1, 6.9 nM IgG (Kv1.3 (human)): 0.828 A450
IL-17 ELISA (A450), Donor 1, 31 nM IgG (Kv1.3 (human)): 0.453 A450
IL-17 ELISA (A450), Donor 1, 140 nM IgG (Kv1.3 (human)): 0.247 A450
IL-17 ELISA (A450), Donor 2, 0.00 nM IgG (Kv1.3 (human)): 0 A450
IL-17 ELISA (A450), Donor 2, 0.02 nM IgG (Kv1.3 (human)): 0.959 A450
IL-17 ELISA (A450), Donor 2, 0.08 nM IgG (Kv1.3 (human)): 0.777 A450
IL-17 ELISA (A450), Donor 2, 0.34 nM IgG (Kv1.3 (human)): 0.82 A450
IL-17 ELISA (A450), Donor 2, 1.54 nM IgG (Kv1.3 (human)): 0.785 A450
IL-17 ELISA (A450), Donor 2, 6.9 nM IgG (Kv1.3 (human)): 0.641 A450
IL-17 ELISA (A450), Donor 2, 31 nM IgG (Kv1.3 (human)): 0.364 A450
IL-17 ELISA (A450), Donor 2, 140 nM IgG (Kv1.3 (human)): 0.096 A450
TNF-α ELISA (A450), Donor 1, 0.00 nM IgG (Kv1.3 (human)): 0 A450
TNF-α ELISA (A450), Donor 1, 0.02 nM IgG (Kv1.3 (human)): 1.52 A450
TNF-α ELISA (A450), Donor 1, 0.08 nM IgG (Kv1.3 (human)): 1.45 A450
TNF-α ELISA (A450), Donor 1, 0.34 nM IgG (Kv1.3 (human)): 1.42 A450
TNF-α ELISA (A450), Donor 1, 1.54 nM IgG (Kv1.3 (human)): 1.33 A450
TNF-α ELISA (A450), Donor 1, 6.9 nM IgG (Kv1.3 (human)): 1.1 A450
TNF-α ELISA (A450), Donor 1, 31 nM IgG (Kv1.3 (human)): 0.808 A450
TNF-α ELISA (A450), Donor 1, 140 nM IgG (Kv1.3 (human)): 0.402 A450
TNF-α ELISA (A450), Donor 1, [IgG] 0.01 nM (Kv1.3 (human)): 1.91 A450 and 1.88 A450
TNF-α ELISA (A450), Donor 1, [IgG] 0.75 nM (Kv1.3 (human)): 1.76 A450 and 1.67 A450
TNF-α ELISA (A450), Donor 1, [IgG] 68 nM (Kv1.3 (human)): 1.12 A450 and 1.08 A450
TNF-α ELISA (A450), Donor 2, 0.00 nM IgG (Kv1.3 (human)): 0 A450
TNF-α ELISA (A450), Donor 2, 0.02 nM IgG (Kv1.3 (human)): 1.56 A450
TNF-α ELISA (A450), Donor 2, 0.08 nM IgG (Kv1.3 (human)): 1.42 A450
TNF-α ELISA (A450), Donor 2, 0.34 nM IgG (Kv1.3 (human)): 1.55 A450
TNF-α ELISA (A450), Donor 2, 1.54 nM IgG (Kv1.3 (human)): 1.29 A450
TNF-α ELISA (A450), Donor 2, 6.9 nM IgG (Kv1.3 (human)): 0.916 A450
TNF-α ELISA (A450), Donor 2, 31 nM IgG (Kv1.3 (human)): 0.438 A450
TNF-α ELISA (A450), Donor 2, 140 nM IgG (Kv1.3 (human)): 0.167 A450
TNF-α ELISA (A450), Donor 2, [IgG] 0.01 nM (Kv1.3 (human)): 2.23 A450 and 2.1 A450
TNF-α ELISA (A450), Donor 2, [IgG] 0.75 nM (Kv1.3 (human)): 2.1 A450 and 1.88 A450
TNF-α ELISA (A450), Donor 2, [IgG] 68 nM (Kv1.3 (human)): 1.8 A450 and 1.32 A450

B6: VH4-34 MutE 3xGGS NoKnob (antibody, V domains shown)
VH: B5 VH
VL: B5 VL
IL-2 ELISA (A450); Donor 1; 0.04 nM IgG (Kv1.3 (human)): 0.333 A450
IL-2 ELISA (A450); Donor 1; 0.6 nM IgG (Kv1.3 (human)): 0.356 A450
IL-2 ELISA (A450); Donor 1; 9.4 nM IgG (Kv1.3 (human)): 0.371 A450
IL-2 ELISA (A450); Donor 1; 150 nM IgG (Kv1.3 (human)): 0.232 A450
IL-2 ELISA (A450); Donor 2; 0.04 nM IgG (Kv1.3 (human)): 0.976 A450
IL-2 ELISA (A450); Donor 2; 0.6 nM IgG (Kv1.3 (human)): 0.795 A450
IL-2 ELISA (A450); Donor 2; 9.4 nM IgG (Kv1.3 (human)): 0.808 A450
IL-2 ELISA (A450); Donor 2; 150 nM IgG (Kv1.3 (human)): 0.475 A450
TNF-α ELISA (A450); Donor 1; 0.04 nM IgG (Kv1.3 (human)): 0.76 A450
TNF-α ELISA (A450); Donor 1; 0.6 nM IgG (Kv1.3 (human)): 0.813 A450
TNF-α ELISA (A450); Donor 1; 9.4 nM IgG (Kv1.3 (human)): 0.821 A450
TNF-α ELISA (A450); Donor 1; 150 nM IgG (Kv1.3 (human)): 0.599 A450
TNF-α ELISA (A450); Donor 2; 0.04 nM IgG (Kv1.3 (human)): 0.736 A450
TNF-α ELISA (A450); Donor 2; 0.6 nM IgG (Kv1.3 (human)): 0.631 A450
TNF-α ELISA (A450); Donor 2; 9.4 nM IgG (Kv1.3 (human)): 0.622 A450
TNF-α ELISA (A450); Donor 2; 150 nM IgG (Kv1.3 (human)): 0.366 A450

Further lines, results first:

luminescence at 0.1 nM IL-8 domains (CXCR1): 4060
luminescence at 0.4 nM IL-8 domains (CXCR1): 6190
luminescence at 0.5 nM IL-8 domains (CXCR1): 5300
luminescence at 1.6 nM IL-8 domains (CXCR1): 8160
luminescence at 2.2 nM IL-8 domains (CXCR1): 10300
luminescence at 6.25 nM IL-8 domains (CXCR1): 13500
luminescence at 9.9 nM IL-8 domains (CXCR1): 17100
luminescence at 25 nM IL-8 domains (CXCR1): 21000
luminescence at 44 nM IL-8 domains (CXCR1): 23300
luminescence at 100 nM IL-8 domains (CXCR1): 25900
luminescence at 200 nM IL-8 domains (CXCR1): 22300
B3: VH4-34+CDR3-IL8_CDR1-G31DY32K_CDR2-E50S_Q5RQ6E with VL1-51 S2A, T5N, P8S, A12G, A13S, P14L, K46R, L47T, D51G, N52D, N53T (antibody)
VH: B1 VH with T23A, A24V, S25Y, F27G, L29F, A33Y, V34W, G35S, E50S
light: B1 light

luminescence at 0.4 nM IL-8 domains (CXCR1): 5420
luminescence at 1.6 nM IL-8 domains (CXCR1): 5710
luminescence at 6.25 nM IL-8 domains (CXCR1): 7160
luminescence at 25 nM IL-8 domains (CXCR1): 11200
luminescence at 100 nM IL-8 domains (CXCR1): 15500
B4: VH4-34+CDR3-IL8_CDR1-G31DY32K_CDR2-E50S with VL1-51 S2A, T5N, P8S, A12G, A13S, P14L, K46R, L47T, D51G, N52D, N53T (antibody)
VH: QVQLQQWGAGLLKPSETLSLTCAVYGGSFSDKYWSWIRQPPGKGLEWIGSINHSGSTNYNPSLKSRVTISVDTSKNQFSLKLSSVTAADTAVYYCTSVHQETKKYQSPRSAKELRCQCIKTYSKPFHPKFIKELRVIESGPHCANTEIIVKLSDGRELCLDPKENWVQRVVEKFLKRAENSGSGSYTYNYEWHVDVWGQGLLVTVSSAS
light: B1 light

Reference: patent publication US20160159928A1
